Measured values from US20080045450A1, “GLP-2 Derivatives” (priority 1996, published 2008).

Experiment: Helix content by circular dichroism (CD) at 222 nm in aqueous solution
Type: physicochemical
From the text: The size of the partially helical, micelle-like aggregates may be estimated by size-exclusion chromatography. Similarly, the apparent (critical micelle concentrations) CMC's of the peptides may be estimated from the concentration dependent fluorescence in the presence of appropriate dyes (e.g. Brito, R. & Vaz, W. (1986) Anal. Biochem. 152, 250-255).
For the GLP-2 derivatives forming partially structured micellar-like aggregates in aqueous solution the helix content remains constant above 30% at concentrations of 10 μM. The aggregated structured conformation is an inherent property of the derivative present in water or dilute aqueous buffer without the need for any additional structure-inducing components. Note that the CD signal is proportional to the average content of α-helix in the peptides, i.e., a CD value of −1 corresponds to 10% α-helix content under these conditions.

native GLP-2: human glucagon-like peptide-2, a 33 amino acid residue peptide; parent peptide of the derivatives
helix content (at 500 μM concentration, in parallel with peptide self-association): 30-35% | helix content (starting value at low peptide concentration, before the increase seen with increasing concentration): 10-15%
